Laboratory results as given in patent US20260242478A1 (published 2026).
Where no end group is shown, it is not given here.

Key:
[1] = target: Anti-CD28 Fab (SEQ ID NOs: 696, 697); test: phage binding ELISA; captured anti-CD28 Fab pre-incubated with CD28 antigen as competitor, anti-M13 HRP
Target sequence in this assay (VH, as listed by the source, chain 1 of 2): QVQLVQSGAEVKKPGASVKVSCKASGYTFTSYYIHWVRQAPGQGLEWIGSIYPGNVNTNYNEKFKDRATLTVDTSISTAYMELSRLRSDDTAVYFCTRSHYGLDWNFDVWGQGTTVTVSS
Target sequence in this assay (VL, as listed by the source, chain 2 of 2): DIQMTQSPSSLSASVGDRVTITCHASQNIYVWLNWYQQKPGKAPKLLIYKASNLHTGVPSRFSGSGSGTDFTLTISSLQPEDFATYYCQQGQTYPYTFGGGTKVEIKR
Method: (§1) After panning, phage infected bacteria were plated out and colonies picked into 96 well blocks. Clonal phage was then amplified and separated from bacterial cells via centrifugation.
(§2) Clonal phage were harvested as crude supematants and screened via standard ELISAs. […] Prior to the addition of clonal phage, wells were incubated with blocking buffer and CD28 antigen or blocking buffer alone. Without washing or aspirating, clonal phage supematants were then added to the wells and incubated for a short time. Wells were then washed followed by detection of bound phage using a horse radish conjugated anti-M13 antibody. Clonal phage of interest were then sent for sequence analysis.

[2] = target: Anti-CD28 Fab (SEQ ID NOs: 696, 697); test: phage binding ELISA; biotinylated anti-CD28 Fab on neutravidin plate, clonal phage supernatant, anti-M13 HRP;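 further: crude clonal phage supernatants screened after wells were preincubated either with CD28 antigen in blocking buffer or with blocking buffer only, phage added without washing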
Target sequence in this assay (VH, as listed by the source, chain 1 of 2): as the sequence (VH, as listed by the source, chain 1 of 2) above
Target sequence in this assay (VL, as listed by the source, chain 2 of 2): as the sequence (VL, as listed by the source, chain 2 of 2) above
Method: as §1, §2

[3] = target: T1, Anti-CD28 Fab (SEQ ID NOs: 696, 697); test: phage binding ELISA on captured anti-CD28 Fab; competitor: CD28 antigen
T1 construct: In the phage ELISA the Fab was biotinylated and captured on neutravidin coated plates
T1 sequence (VH, as listed by the source, chain 1 of 2): as the sequence (VH, as listed by the source, chain 1 of 2) above
T1 sequence (VL, as listed by the source, chain 2 of 2): as the sequence (VL, as listed by the source, chain 2 of 2) above
Method: as §1, §2

[4] = target: T1, Anti-CD28 Fab (SEQ ID NOs: 696, 697); test: phage binding ELISA; biotinylated anti-CD28 Fab on neutravidin plate, bound phage detected with anti-M13 HRP;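 further: crude supernatants of clonal phage screened, wells pretreated with blocking buffer with or without CD28 antigen before brief phage incubation, washed, then bound phage detected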
Method: as §1, §2

[5] = target: T2, Anti-CD28 Fab (SEQ ID NOs: 696, 697); test: phage binding ELISA, Fab on plate pre-incubated with CD28 antigen as competitor
T2 construct: Biotinylated and captured on neutravidin coated plates in the phage ELISA
T2 sequence (VH, as listed by the source, chain 1 of 2): as the sequence (VH, as listed by the source, chain 1 of 2) above
T2 sequence (VL, as listed by the source, chain 2 of 2): as the sequence (VL, as listed by the source, chain 2 of 2) above
Method: as §1, §2

[6] = target: T2, Anti-CD28 Fab (SEQ ID NOs: 696, 697); test: phage binding ELISA, biotinylated Fab on neutravidin plate, anti-M13 HRP detection;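 further: crude clonal phage supernatants added to Fab-coated wells pretreated with CD28 antigen or with blocking buffer only, bound phage measured after washing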
Method: as §1, §2

[7] = target: T3, Anti-CD28 Fab (SEQ ID NOs: 696, 697); test: phage ELISA on anti-CD28 Fab plates; competitor CD28 antigen pre-incubated in the wells
T3 construct: Biotinylated and captured on neutravidin coated plates in the phage ELISA
T3 sequence (VH, as listed by the source, chain 1 of 2): as the sequence (VH, as listed by the source, chain 1 of 2) above
T3 sequence (VL, as listed by the source, chain 2 of 2): as the sequence (VL, as listed by the source, chain 2 of 2) above
Method: as §1, §2

[8] = target: T3, Anti-CD28 Fab (SEQ ID NOs: 696, 697); test: phage ELISA; biotinylated anti-CD28 Fab on neutravidin plates, bound phage detected with anti-M13 HRP
Method: as §1, §2

## YCEGHAWEYMAKCL [Phage-580]
[1]
  Anti-CD28 Fab signal in the presence of CD28: 0.07
[2]
  Anti-CD28 Fab (SEQ ID NOs: 696, 697) signal: 2.24

B1: Phage-575 (peptide)
peptide: YCEGHLPMYMEKCL
modifications: cysteine pairing not given here; also: displayed on phage by fusion to pIII, pIII and linker sequence not given here
[3]
  Anti-CD28 Fab signal in the presence of CD28: 0.1
[4]
  Anti-CD28 Fab signal: 2.25

B2: Phage-553 (peptide)
peptide: YCDGHAPQYMRKCL
notes: Clonal phage of the Peptide-87 library, tested as crude supernatant; not shown: pIII of the bacteriophage to which the peptide is fused
[5]
  Anti-CD28 Fab signal in the presence of CD28: 0.07
[6]
  Anti-CD28 Fab (SEQ ID NOs: 696, 697) signal: 2.3

## YCDGHAPQYMQKCL [Phage-566]
[3]
  Anti-CD28 Fab signal in the presence of CD28: 0.11
[4]
  Anti-CD28 Fab signal: 2.28

B3: Phage-555 (peptide)
peptide: YCEGHSSEYMLKCL
notes: as for B2
[5]
  Anti-CD28 Fab signal in the presence of CD28: 0.07
[6]
  Anti-CD28 Fab (SEQ ID NOs: 696, 697) signal: 2.3

B4: Phage-562 (peptide)
peptide: YCQGHAPEYMAKCL
notes: as for B2
[5]
  Anti-CD28 Fab signal in the presence of CD28: 0.1
[6]
  Anti-CD28 Fab (SEQ ID NOs: 696, 697) signal: 2.28

B5: Phage-563 (peptide)
peptide: YCDGHSQEYMMKCL
notes: as for B2
[5]
  Anti-CD28 Fab signal in the presence of CD28: 0.06
[6]
  Anti-CD28 Fab (SEQ ID NOs: 696, 697) signal: 2.28

B6: Phage-565 (peptide)
peptide: YCDGHSSEYMAKCL
notes: as for B2
[5]
  Anti-CD28 Fab signal in the presence of CD28: 0.09
[6]
  Anti-CD28 Fab (SEQ ID NOs: 696, 697) signal: 2.28

B7: Phage-560 (peptide)
peptide: YCDGHVPEYMAKCL
notes: as for B2
[5]
  Anti-CD28 Fab signal in the presence of CD28: 0.07
[6]
  Anti-CD28 Fab (SEQ ID NOs: 696, 697) signal: 2.29

B8: Phage-556 (peptide)
peptide: YCEGHAAEYMEKCL
notes: as for B2
[5]
  Anti-CD28 Fab signal in the presence of CD28: 0.11
[6]
  Anti-CD28 Fab (SEQ ID NOs: 696, 697) signal: 2.3

## YCEGHLPEYMQKCM [Phage-587]
[1]
  Anti-CD28 Fab signal in the presence of CD28: 0.08
[2]
  Anti-CD28 Fab (SEQ ID NOs: 696, 697) signal: 2.23

B9: Phage-569 (peptide)
peptide: YCDGHLPQYMMKCL
modifications: cysteine pairing not given here; also: displayed on phage by fusion to pIII, pIII and linker sequence not given here
[3]
  Anti-CD28 Fab signal in the presence of CD28: 0.14
[4]
  Anti-CD28 Fab signal: 2.27

B10: Phage-557 (peptide)
peptide: YCEGHSAQYMSKCL
notes: as for B2
[5]
  Anti-CD28 Fab signal in the presence of CD28: 0.07
[6]
  Anti-CD28 Fab (SEQ ID NOs: 696, 697) signal: 2.29

## YCEGHSPEYMYKCL [Phage-589]
[1]
  Anti-CD28 Fab signal in the presence of CD28: 0.1
[2]
  Anti-CD28 Fab (SEQ ID NOs: 696, 697) signal: 2.23

B11: Phage-559 (peptide)
peptide: YCDGHLPQYMWKCL
notes: as for B2
[5]
  Anti-CD28 Fab signal in the presence of CD28: 0.12
[6]
  Anti-CD28 Fab (SEQ ID NOs: 696, 697) signal: 2.29

## YCQGHLPIYMEKCL [Phage-583]
[1]
  Anti-CD28 Fab signal in the presence of CD28: 0.09
[2]
  Anti-CD28 Fab (SEQ ID NOs: 696, 697) signal: 2.24

B12: Phage-558 (peptide)
peptide: YCDGHSREYIAKCL
notes: as for B2
[5]
  Anti-CD28 Fab signal in the presence of CD28: 0.08
[6]
  Anti-CD28 Fab (SEQ ID NOs: 696, 697) signal: 2.29

B13: Phage-570 (peptide)
peptide: YCDGHSTEYLWKCL
modifications: cysteine pairing not given here; also: displayed on phage by fusion to pIII, pIII and linker sequence not given here
[3]
  Anti-CD28 Fab signal in the presence of CD28: 0.06
[4]
  Anti-CD28 Fab signal: 2.26

B14: Phage-577 (peptide)
peptide: YCEGHSPLYMWKCL
modifications: cysteine pairing not given here; also: displayed on phage by fusion to pIII, pIII and linker sequence not given here
[3]
  Anti-CD28 Fab signal in the presence of CD28: 0.06
[4]
  Anti-CD28 Fab signal: 2.25

B15: Phage-554 (peptide)
peptide: YCDGHAKEYMWKCL
notes: as for B2
[5]
  Anti-CD28 Fab signal in the presence of CD28: 0.07
[6]
  Anti-CD28 Fab (SEQ ID NOs: 696, 697) signal: 2.3

## YCEGHAPMYMWKCL [Phage-586]
[1]
  Anti-CD28 Fab signal in the presence of CD28: 0.08
[2]
  Anti-CD28 Fab (SEQ ID NOs: 696, 697) signal: 2.23

B16: Phage-578 (peptide)
peptide: YCEGHSPEYMEKCL
modifications: cysteine pairing not given here; also: displayed on phage by fusion to pIII, pIII and linker sequence not given here
[3]
  Anti-CD28 Fab signal in the presence of CD28: 0.07
[4]
  Anti-CD28 Fab signal: 2.24

B17: Phage-572 (peptide)
peptide: YCDGHAAEYMAKCL
modifications: cysteine pairing not given here; also: displayed on phage by fusion to pIII, pIII and linker sequence not given here
[3]
  Anti-CD28 Fab signal in the presence of CD28: 0.13
[4]
  Anti-CD28 Fab signal: 2.26

B18: Phage-573 (peptide)
peptide: YCEGHSQEYMSKCL
modifications: cysteine pairing not given here; also: displayed on phage by fusion to pIII, pIII and linker sequence not given here
[3]
  Anti-CD28 Fab signal in the presence of CD28: 0.07
[4]
  Anti-CD28 Fab signal: 2.26

## YCEGHLPIYLEKCM [Phage-567]
[3]
  Anti-CD28 Fab signal in the presence of CD28: 0.1
[4]
  Anti-CD28 Fab signal: 2.27

## YCQGHLPEYMNKCL [Phage-581]
[1]
  Anti-CD28 Fab signal in the presence of CD28: 0.08
[2]
  Anti-CD28 Fab (SEQ ID NOs: 696, 697) signal: 2.24

B19: Phage-576 (peptide)
peptide: YCDGHLSEYMEKCL
modifications: cysteine pairing not given here; also: displayed on phage by fusion to pIII, pIII and linker sequence not given here
[3]
  Anti-CD28 Fab signal in the presence of CD28: 0.08
[4]
  Anti-CD28 Fab signal: 2.25

## YCDGHLPLYLAKCL [Phage-584]
[1]
  Anti-CD28 Fab signal in the presence of CD28: 0.09
[2]
  Anti-CD28 Fab (SEQ ID NOs: 696, 697) signal: 2.23

## YCDGHLPQYMNKCL [Phage-585]
[1]
  Anti-CD28 Fab signal in the presence of CD28: 0.1
[2]
  Anti-CD28 Fab (SEQ ID NOs: 696, 697) signal: 2.23

B20: Phage-564 (peptide)
peptide: YCSGHLPQYMQKCL
notes: as for B2
[5]
  Anti-CD28 Fab signal in the presence of CD28: 0.08
[6]
  Anti-CD28 Fab (SEQ ID NOs: 696, 697) signal: 2.28

## YCAGHLPEYMEKCL [Phage-579]
[1]
  Anti-CD28 Fab signal in the presence of CD28: 0.12
[2]
  Anti-CD28 Fab (SEQ ID NOs: 696, 697) signal: 2.24

B21: Phage-574 (peptide)
peptide: YCDGHLPEYLWKCL
modifications: cysteine pairing not given here; also: displayed on phage by fusion to pIII, pIII and linker sequence not given here
[3]
  Anti-CD28 Fab signal in the presence of CD28: 0.13
[4]
  Anti-CD28 Fab signal: 2.26

## YCEGHTPEYMQKCL [Phage-568]
[3]
  Anti-CD28 Fab signal in the presence of CD28: 0.07
[4]
  Anti-CD28 Fab signal: 2.27

## YCDGHLPIYMAKCL [Phage-552]
[7]
  Phage binding ELISA, Anti-CD28 Fab signal in the presence of CD28: 0.14
[8]
  Phage binding ELISA, Anti-CD28 Fab signal: 2.3

## YCDGHSQEYMAKCL [Phage-582]
[1]
  Anti-CD28 Fab signal in the presence of CD28: 0.08
[2]
  Anti-CD28 Fab (SEQ ID NOs: 696, 697) signal: 2.24

## YCDGHSAEYMAKCL [Phage-588]
[1]
  Anti-CD28 Fab signal in the presence of CD28: 0.07
[2]
  Anti-CD28 Fab (SEQ ID NOs: 696, 697) signal: 2.23

B22: Phage-561 (peptide)
peptide: YCDGHLPMYMMKCL
notes: as for B2
[5]
  Anti-CD28 Fab signal in the presence of CD28: 0.14
[6]
  Anti-CD28 Fab (SEQ ID NOs: 696, 697) signal: 2.28

B23: Phage-571 (peptide)
peptide: YCEGHLGIYMYKCL
modifications: cysteine pairing not given here; also: displayed on phage by fusion to pIII, pIII and linker sequence not given here
[3]
  Anti-CD28 Fab signal in the presence of CD28: 0.14
[4]
  Anti-CD28 Fab signal: 2.26
